Legend:
[1] = molecular target: GLP-1 receptor; assay: cell-based or functional assay
[2] = molecular target: glucagon receptor; assay: cell-based or functional assay

In the case of HSQGTFTSDYSKYLDSRRAQDFVQWLMNTGPSSGAPPPS (C-terminal amide) [Glucagon-Cex], the “cAMP Induction, EC50 (luciferase reporter, HEK293)” value (from here on “cAMP Induction, EC50”) [1] is reported as 2.75 nM and the “cAMP Induction, EC50” value [2] is reported as 0.25 nM.

With HSQGTFTSDYSRYLDSRRAQDFVQWLMNK [Glucagon R12 K29] the “cAMP Induction, EC50” value [1] was 0.41 nM and the “cAMP Induction, EC50” value [2] was 0.81 nM.

HSQGTFTSDYSKYLDSRRAQDFVQWLMNTKRNR [Oxyntomodulin KRNR] was tested, and the “cAMP Induction, EC50” value [1] was 3.21 nM and the “cAMP Induction, EC50” value [2] was 2.77 nM.
